PMC5919683, “Transcription factor HAT1 is a substrate of SnRK2.3 kinase and negatively regulates ABA synthesis and signaling in Arabidopsis responding to drought” (PLoS Genetics, 2018)
One block for each binder: values may come before it.

What was measured:
MBP-HAT1 = target: T1, MBP-HAT1 (Arabidopsis thaliana (Col-0), UniProt P46600 1-282); experiment: EMSA; EMSA: 25 mM HEPES-KOH pH 8.0, 50 mM KCl, 1 mM DTT, 10% glycerol, 20 uL, ~1 ng probe, 30 min on ice; 5% native PAGE, 1x TGE pH 8.7; details: protein: recombinant; tags: MBP (pETMALc-H); chain copies: 2
T1 sequence: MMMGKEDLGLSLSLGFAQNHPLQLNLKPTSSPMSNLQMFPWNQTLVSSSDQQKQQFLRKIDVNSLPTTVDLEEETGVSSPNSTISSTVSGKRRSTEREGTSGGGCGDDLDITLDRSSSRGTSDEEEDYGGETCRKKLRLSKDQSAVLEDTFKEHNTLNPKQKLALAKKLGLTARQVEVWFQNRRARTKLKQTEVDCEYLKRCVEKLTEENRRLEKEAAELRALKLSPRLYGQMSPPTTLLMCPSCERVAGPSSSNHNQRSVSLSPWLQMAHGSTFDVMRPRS

GST-SnRK2.6 = target: T2, GST-SnRK2.6 (Arabidopsis thaliana, UniProt Q940H6 1-362); experiment: pull-down; GST pull-down: GST or GST-SnRK2s as bait, MBP-tagged HAT1 or its domains detected by western blotting with anti-MBP antibody; details: both partners purified
T2 construct: SnRK2.6 of Arabidopsis; coding region inserted into pGEX-6P-1; also called GST-SnRK2s; source: recombinant (pGEX-6P-1 vector); purification told only for GST-SnRK2.3
T2 sequence (looked up): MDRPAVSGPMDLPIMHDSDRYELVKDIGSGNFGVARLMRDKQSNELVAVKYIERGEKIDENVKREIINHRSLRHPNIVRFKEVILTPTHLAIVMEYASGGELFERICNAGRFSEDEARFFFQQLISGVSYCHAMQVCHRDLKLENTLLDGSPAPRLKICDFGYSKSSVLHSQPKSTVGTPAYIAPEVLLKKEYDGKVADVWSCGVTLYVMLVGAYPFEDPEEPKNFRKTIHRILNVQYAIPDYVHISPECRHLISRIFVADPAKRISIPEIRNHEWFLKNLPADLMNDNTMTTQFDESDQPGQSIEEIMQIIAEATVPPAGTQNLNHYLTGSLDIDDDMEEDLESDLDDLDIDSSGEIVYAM

GST-SnRK2.2 = target: T3, GST-SnRK2.2 (Arabidopsis thaliana, UniProt Q39192 1-362); experiment: as above; details: both partners purified
T3 construct: SnRK2.2 of Arabidopsis; coding region inserted into pGEX-6P-1; also called GST-SnRK2s; source: recombinant (pGEX-6P-1 vector); purification told only for GST-SnRK2.3
T3 sequence (looked up): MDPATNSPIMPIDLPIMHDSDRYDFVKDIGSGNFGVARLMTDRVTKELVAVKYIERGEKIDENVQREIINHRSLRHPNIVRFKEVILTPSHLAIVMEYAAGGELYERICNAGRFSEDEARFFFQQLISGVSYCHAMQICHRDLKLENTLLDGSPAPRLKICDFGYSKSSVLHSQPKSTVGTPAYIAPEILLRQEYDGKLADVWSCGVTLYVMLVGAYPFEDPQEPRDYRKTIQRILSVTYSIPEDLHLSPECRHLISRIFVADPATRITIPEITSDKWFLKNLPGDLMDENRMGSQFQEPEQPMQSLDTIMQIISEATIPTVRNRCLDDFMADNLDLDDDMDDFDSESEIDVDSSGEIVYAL

GST-SnRK2.3 = target: T4, GST-SnRK2.3 (Arabidopsis thaliana, UniProt Q39193 1-361); experiment: as above; details: both partners purified
T4 construct: SnRK2.3 of Arabidopsis; coding region inserted into pGEX-6P-1; also called GST-SnRK2s; SnRK2.3 fused with GST; source: recombinant (pGEX-6P-1 vector), purified with glutathione beads (Sigma)
T4 sequence (looked up): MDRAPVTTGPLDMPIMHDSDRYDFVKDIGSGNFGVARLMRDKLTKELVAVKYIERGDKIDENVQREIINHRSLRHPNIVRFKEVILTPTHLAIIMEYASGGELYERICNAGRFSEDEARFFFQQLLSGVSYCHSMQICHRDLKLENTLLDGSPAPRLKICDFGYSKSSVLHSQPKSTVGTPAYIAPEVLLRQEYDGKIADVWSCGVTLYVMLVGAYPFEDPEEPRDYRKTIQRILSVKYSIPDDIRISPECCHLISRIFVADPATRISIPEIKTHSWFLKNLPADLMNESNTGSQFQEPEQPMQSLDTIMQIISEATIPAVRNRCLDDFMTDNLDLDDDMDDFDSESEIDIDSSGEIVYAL

B1: NCED3 N1 WT probe (dsDNA)
DNA 1: AAAAATTCCAATTATTGTGTTACTCTATTCTTCTAAA
DNA 2: TTTAGAAGAATAGAGTAACACAATAATTGGAATTTTT
binding result (MBP-HAT1): binds

B2: NCED3 N1 mutant probe (dsDNA)
DNA 1: AAACATTCGCTGGTCGTTGTTACTCTATTCTTCTAAA
DNA 2: TTTAGAAGAATAGAGTAACAACGACCAGCGAATGTTT
binding result (MBP-HAT1): no binding

B3: ABA3 A1 WT probe (dsDNA)
DNA 1: ATATTTAATTTAATAATTATTGGTTTAAACAAAATT
DNA 2: AATTTTGTTTAAACCAATAATTATTAAATTAAATAT
binding result (MBP-HAT1): binds

B4: ABA3 A1 mutant probe (dsDNA)
DNA 1: ATATTTAATTGCTGGTCGTTGGTTTAAACAAAATT
DNA 2: AATTTTGTTTAAACCAACGACCAGCAATTAAATAT
binding result (MBP-HAT1): no binding

binding result (GST-SnRK2.6): binds | binding result (GST-SnRK2.2): binds | binding result (GST-SnRK2.3): binds
B5: MBP-HAT1 (natural protein, Arabidopsis thaliana, UniProt P46600 1-282, looked up)
chain: T1 sequence
notes: HAT1 of Arabidopsis thaliana; the HAT1 coding region amplified from Col-0 cDNA; The methods of the EMSA speak of recombinant proteins purified from E. coli; also called MBP-tagged HAT1; MBP-fusion HAT1 protein; source: recombinant (pETMALc-H vector), purified with amylose resin (NEB)
